Measurements published in patent publication US12459996B2, “Methods for treating alcohol-induced brain injury and reducing alcohol addiction” (The Regents of the University of California, priority 2017, dated 2025).

Test system: cultured GFAP+F4/80- astrocytes
Test: IL-1β stimulation of cultured astrocytes, gene expression microarray
Type: cell-based, mouse
Conditions: 5 ng/ml, 24 h
Method: Whole mouse genome gene expression via Microarray: Primary astrocytes (5×10^5) were stimulated with IL-1β (5 ng/ml), TGF-β1(5 ng/ml) or vehicle for 24 h, harvested, and mRNA was purified using RNAeasy™ columns (Qiagen); and 160 ng of purified RNA per sample was labeled using the LRILAK PLUS™, 2-color, low RNA input Linear Amplification kit and hybridized to a Whole Mouse Genome Microarray 4×44 K™ 60mer slide according to the manufacturer's instructions (Agilent, Santa Clara, CA). Slides were scanned using the Agilent GZ505B Scanner™ and analyzed using the Gene Spring Software™ (Agilent).
To determine the effect of microglia-derived cytokines on astrogliosis 21,22, cultured GFAP^+F4/80-astrocytes were in vitro stimulated with TGF-β1 or IL-β. […] In addition, cultured astrocytes expressed glutamate receptors (mGluRs) that mediate neuron-astrocyte signaling (FIG. 14D). Under pathological conditions, neurodegeneration triggers expansion of reactive astrocytes, upregulation of TGF-β 1, and mGuRs, which together generate neuroprotective effects^24.
FIG. 14A: Primary GFAP^+F4/80^− astrocytes and GFAP^−F4/80^+ microglial cells were isolated from Wt mice, and phenotyped by immunocytochemistry. Cell purity was calculated as percent of total cells (representative images ×20 objective). […] The data are average of (triplicates). FIG. 14B-C: Cultured astrocytes (5×10^5 cells per ml) were stimulated with TGF-β1 (5 ng/ml), or IL-1β (5 ng/ml), or PBS, and subjected to the customized gene expression microarray (Agilent. FIG. 14B: GO enrichment profile for IL-1β- and FIG. 14C: TGF-β- (vs PBS-) stimulated astrocytes is shown.

Substance: IL-β1: IL-1β cytokine (5 ng/ml) used to stimulate cultured astrocytes
- CCL2, fold induction vs vehicle: 200 fold
- CCL5, fold induction vs vehicle: 13 fold
- CCL7, fold induction vs vehicle: 400 fold
- Cxcl1, fold induction vs vehicle: 14 fold
- IL-6, fold induction vs vehicle: 20 fold
